Values joined by “and” are separate entries in the source; they are usually repeats but may differ in a detail not shown here. Equal entries are not always repeated.
B3: ERRγ LBD (ERRγ 229–458) homodimer (domain or fragment, UniProt P62508 229-458, looked up)
chain: PAKKPYNKIVSHLLVAEPEKIYAMPDPTVPDSDIKALTTLCDLADRELVVIIGWAKHIPGFSTLSLADQMSLLQSAWMEILILGVVYRSLSFEDELVYADDYIMDEDQSKLAGLLDLNNAILQLVKKYKSMKLEKEEFVTLKAIALANSDSMHIEDVEAVQKLQDVLHEALQDYEAGQHMEDPRRAGKMLMTLPLLRQTSTKAVQHFYNIKLEGKVPMHKLFLEMLEAKV
notes: also called ERR LBD; source: cloned in pET15b
B6: ERRα LBD (ERRα-189-423) homodimer (domain or fragment, UniProt P11474 189-423, looked up)
chain: KTAAPVNALVSHLLVVEPEKLYAMPDPAGPDGHLPAVATLCDLFDREIVVTISWAKSIPGFSSLSLSDQMSVLQSVWMEVLVLGVAQRSLPLQDELAFAEDLVLDEEGARAAGLGELGAALLQLVRRLQALRLEREEYVLLKALALANSDSVHIEDAEAVEQLREALHEALLEYEAGRAGPGGGAERRRAGRLLLTLPLLRQTAGKVLAHFYGVKLEGKVPMHKLFLEMLEAMMD
notes: also called ERR LBD; source: cloned in pET24b
B7: ERRα LBD (189-423) homodimer with uncleaved His6 tag (domain or fragment, UniProt P11474 189-423, looked up)
chain: KTAAPVNALVSHLLVVEPEKLYAMPDPAGPDGHLPAVATLCDLFDREIVVTISWAKSIPGFSSLSLSDQMSVLQSVWMEVLVLGVAQRSLPLQDELAFAEDLVLDEEGARAAGLGELGAALLQLVRRLQALRLEREEYVLLKALALANSDSVHIEDAEAVEQLREALHEALLEYEAGRAGPGGGAERRRAGRLLLTLPLLRQTAGKVLAHFYGVKLEGKVPMHKLFLEMLEAMMD
notes: source: cloned in pET24b

Experiments:
[1] = biological target: ERRγ LBD (ERRγ 229-458) homodimer (UniProt P62508); assay: ITC; PGC-1α RID wild type or LxxLL mutant (340-580 µM) injected into 40-70 µM ERR in the cell; 20°C; 20 mM Hepes pH 7.5, 120 mM NaCl, 0.2 % glycerol; one set of sites model
[2] = biological target: ERRα LBD (ERRα-189-423) homodimer (UniProt P11474); assay: as above
[3] = biological target: B6; assay: not stated; binding of short PGC-1α peptides to ERR LBDs; told only in the discussion; settings: both partners purified
[4] = biological target: B3; assay: as above; settings: both partners purified
[5] = biological target: B7; assay: native MS; ESI-TOF under non-denaturing conditions, 200 mM ammonium acetate, pH 7.4; settings: both partners purified
[6] = biological target: B3; assay: as above; settings: both partners purified
[7] = biological target: the molecule itself; assay: as above
PGC-1α NTD (1–285) = biological target: T1, PGC-1α NTD (1–285) (human, UniProt Q9UBK2 1-285); assay: SAXS; synchrotron solution scattering (X33 DESY, SWING SOLEIL), direct injection or SEC-coupled; free proteins and complexes; settings: both partners purified
T1 construct: PGC-1α, human, residues 1-285, holds motifs L2 and L3; source: cloned in pET24b
T1 sequence (looked up): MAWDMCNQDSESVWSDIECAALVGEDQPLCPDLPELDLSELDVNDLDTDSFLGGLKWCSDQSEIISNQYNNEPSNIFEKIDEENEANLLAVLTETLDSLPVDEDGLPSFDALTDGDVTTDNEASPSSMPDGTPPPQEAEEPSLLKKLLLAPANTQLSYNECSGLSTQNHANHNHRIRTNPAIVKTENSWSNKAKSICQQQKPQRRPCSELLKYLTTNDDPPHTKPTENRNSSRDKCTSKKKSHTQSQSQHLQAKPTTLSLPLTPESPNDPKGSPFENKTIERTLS

[8] = biological target: B6; assay: ITC; MicroCal iTC200, 20°C, pH 7.5, one set of sites model; apparent; settings: both partners purified
[9] = biological target: B3; assay: as above; settings: both partners purified
[10] = biological target: T2, ERRα LBD (ERRα-189-423) homodimer (UniProt P11474 189-423); assay: ITC; PGC-1α RID wild type or LxxLL mutant (340-580 µM) injected into 40-70 µM ERR in the cell; 20°C; 20 mM Hepes pH 7.5, 120 mM NaCl, 0.2 % glycerol; one set of sites model; settings: both partners purified
T2 construct: The His6-tag of ERR was cleaved with thrombin for SAXS and left on ERRα for ESI-MS; nothing is said for ITC and native PAGE; also called ERR LBD; source: E. coli BL21 (DE3), purified (HisTrap, SEC)
T2 sequence (looked up): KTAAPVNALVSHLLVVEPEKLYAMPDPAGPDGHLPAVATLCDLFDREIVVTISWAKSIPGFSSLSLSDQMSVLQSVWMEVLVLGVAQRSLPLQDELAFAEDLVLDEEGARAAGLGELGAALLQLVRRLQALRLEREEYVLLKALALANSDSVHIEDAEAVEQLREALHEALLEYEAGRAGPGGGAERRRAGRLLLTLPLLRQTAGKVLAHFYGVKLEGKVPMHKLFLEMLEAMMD

[11] = biological target: T3, ERRγ LBD (ERRγ 229-458) homodimer (UniProt P62508 229-458); assay: as above; settings: both partners purified
T3 construct: Cloned in pET15b; The His6-tag of ERR was cleaved with thrombin for SAXS; nothing is said for ITC and native PAGE; also called ERR LBD; source: E. coli BL21 (DE3), purified (HisTrap, SEC)
T3 sequence (looked up): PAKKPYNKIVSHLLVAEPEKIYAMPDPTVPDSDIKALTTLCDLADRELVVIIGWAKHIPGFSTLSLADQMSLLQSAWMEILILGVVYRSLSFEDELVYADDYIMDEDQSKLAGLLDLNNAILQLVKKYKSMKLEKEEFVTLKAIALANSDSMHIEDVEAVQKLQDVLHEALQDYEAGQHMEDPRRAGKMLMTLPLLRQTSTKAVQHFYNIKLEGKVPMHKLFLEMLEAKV

[12] = biological target: the molecule itself; assay: SAXS; synchrotron solution scattering (X33 DESY, SWING SOLEIL), direct injection or SEC-coupled; free proteins and complexes

PGC-1α RID1 L3m (LLKYL to AAKYL) (from UniProt Q9UBK2 122-235) (domain or fragment)
stoichiometry N [1]: 0.793
stoichiometry N [2]: 0.483

PGC-1α RID1 L2m (LKKLL to LKKAA) (from UniProt Q9UBK2 122-235) (domain or fragment)
stoichiometry N [1]: 0.605
stoichiometry N [2]: 0.846

B1: short peptide encompassing motif L3 of PGC-1α (peptide)
chain: QQQKPQRRPCSELLKYLTTNDD
modifications: Peptide limits are not printed in the supplied text; taken from the PGC-1α L3 peptide crystallised with ERRα (PDB 3D24, cited in the supplement). Termini unknown.
Kd [3]: 4100 nM
Kd [4]: 1300 nM

B2: PGC-1α RID2 (122–285) (domain or fragment, human, UniProt Q9UBK2 122-285, looked up)
chain: EASPSSMPDGTPPPQEAEEPSLLKKLLLAPANTQLSYNECSGLSTQNHANHNHRIRTNPAIVKTENSWSNKAKSICQQQKPQRRPCSELLKYLTTNDDPPHTKPTENRNSSRDKCTSKKKSHTQSQSQHLQAKPTTLSLPLTPESPNDPKGSPFENKTIERTLS
modifications: 15N-labelled in the NMR experiments
notes: PGC-1α, human, residues 122-285, holds motifs L2 and L3; also called His6-tagged PGC-1α RID2; source: cloned in pET24b; not shown: His6, N-terminal, kept
stoichiometry N [5]: 1 PGC-1α RID2 molecule per ERR homodimer
stoichiometry N [6]: 1 PGC-1α RID2 molecule per ERR homodimer

B3
stoichiometry N [7]: 2
binding result (PGC-1α NTD (1–285)): binds

B4: PGC-1α RID1 (122–235), wild type (domain or fragment, human, UniProt Q9UBK2 122-235, looked up)
chain: EASPSSMPDGTPPPQEAEEPSLLKKLLLAPANTQLSYNECSGLSTQNHANHNHRIRTNPAIVKTENSWSNKAKSICQQQKPQRRPCSELLKYLTTNDDPPHTKPTENRNSSRDK
modifications: 15N-labelled in the NMR experiments
notes: His6 is named only for RID2; source: cloned in pET24b
Kd [8]: 71 ± 6 nM
Kd [9]: 53 ± 3 nM

B5: PGC-1α RID1 (122-235), wild type (domain or fragment, human, UniProt Q9UBK2 122-235, looked up)
chain: EASPSSMPDGTPPPQEAEEPSLLKKLLLAPANTQLSYNECSGLSTQNHANHNHRIRTNPAIVKTENSWSNKAKSICQQQKPQRRPCSELLKYLTTNDDPPHTKPTENRNSSRDK
notes: for ITC, native PAGE and SEC-MALS no cleavage of the PGC-1α tag is told; 15N-labelled for NMR; source: E. coli BL21 (DE3), purified (HisTrap, SEC); not shown: His6, N-terminal, kept
stoichiometry N [10]: 0.94 ± 0.001
stoichiometry N [11]: 0.932 ± 0.001

B6
stoichiometry N [12]: 2 and 6

B7
stoichiometry N [7]: 2

B8: short peptide encompassing motif L2 of PGC-1α (peptide)
chain: EAEEPSLLKKLLLAPANTQ
modifications: Peptide limits are not printed in the supplied text; 137-155 is the commonly used PGC-1α L2 peptide around motif 144-148. Termini unknown.
Kd [3]: 6100 nM
Kd [4]: 1200 nM

Source: PMC3706463, “The Asymmetric Binding of PGC-1α to the ERRα and ERRγ Nuclear Receptor Homodimers Involves a Similar Recognition Mechanism” (PLoS ONE, 2013)
